Tests used:
[1] = test system: norovirus GII.4 Sydney VLP (VP1) (Norovirus GII.4 Sydney); test: filter binding; settings: FRA: 1 nM 32P-aptamer, 0-1500 nM VLP, 60 min, each aptamer's original selection buffer (M1, M6-2, SMV19, SMV21: PBS pH 7.4; others in Table S1, not in material)
[2] = test system: norovirus GII.4 New Orleans VLP (VP1) (Norovirus GII.4 New Orleans); test: filter binding; settings: FRA: 1 nM 32P-aptamer, 0-1500 nM VLP, 60 min, each aptamer's original selection buffer (M1, M6-2, SMV19, SMV21: PBS pH 7.4; others in Table S1, not in material)
[3] = test system: norovirus GII.3 VLP (VP1) (Norovirus GII.3); test: filter binding; settings: FRA: 1 nM 32P-aptamer, 0-1500 nM VLP, 60 min, each aptamer's original selection buffer (M1, M6-2, SMV19, SMV21: PBS pH 7.4; others in Table S1, not in material)
[4] = test system: norovirus GI.7 VLP (VP1) (Norovirus GI.7); test: filter binding; settings: FRA: 1 nM 32P-aptamer, 0-1500 nM VLP, 60 min, each aptamer's original selection buffer (M1, M6-2, SMV19, SMV21: PBS pH 7.4; others in Table S1, not in material)
[5] = test system: norovirus P-domain (Norovirus GII.4); test: filter binding; settings: FRA: 1 nM 32P-aptamer, 0-1500 nM VLP, 60 min, each aptamer's original selection buffer (M1, M6-2, SMV19, SMV21: PBS pH 7.4; others in Table S1, not in material)
[6] = test system: norovirus P-domain (Norovirus GII.4); settings: FRA: 1 nM 32P-aptamer, 0-1500 nM VLP, 60 min, each aptamer's original selection buffer (M1, M6-2, SMV19, SMV21: PBS pH 7.4; others in Table S1, not in material); cited from earlier work
[7] = test system: norovirus GII.2 VLP (VP1) (Norovirus GII.2); settings: FRA: 1 nM 32P-aptamer, 0-1500 nM VLP, 60 min, each aptamer's original selection buffer (M1, M6-2, SMV19, SMV21: PBS pH 7.4; others in Table S1, not in material); cited from earlier work

## TGTTTATGGGGATAAACGTATCTAATTCGTGTACTAATCA [M1]
[1]
  Kd: 388 nM
[2]
  Kd: 963 nM

## GTCTGTAGTAGGGAGGATGGTCCGGGGCCCCGAGACGACGTTATCAGGC [Beier]
[1]
  Kd: 71 nM
[2]
  Kd: 105 nM
[3]
  Kd: 115 nM
[4]
  Kd: 63 nM

## GAAATTGGGTTCGGGTTTGGGTTGGGATTACTTAGCGATG [Buf-2]
[5]
  binding signal: 100%
[1]
  Kd: 241 nM
[2]
  Kd: 351 nM
[3]
  Kd: 465 nM
[6]
  Kd: 17 nM

## GCTAGCGAATTCCGTACGAAGGGCGAATTCCACATTGGGCTGCAGCCCGGGGGATCC [AG3]
[1]
  Kd: 313 nM
[2]
  Kd: 1030 nM

## TGGGAAGAGGTCCGGTAAATGCAGGGTCAGCCCGGAGAG [M6-2]
[1]
  Kd: 1130 nM
[2]
  Kd: 928 nM

## CACCAGTGTGTTGAGGTTTGAGCACACTGATAGAGTGTCA [SMV19]
[2]
  Kd: 9340 nM
[7]
  Kd: 191 nM

## CCATGTTTTGTAGGTGTAATAGGTCATGTTAGGGTTTCTG [SMV21]
[1]
  Kd: 1250 nM
[2]
  Kd: 1780 nM
[3]
  Kd: 464 nM
[7]
  Kd: 101 nM

Reference: article PMC8396345
